Experimental data: patent US20250163186A1 (PHYLAXIS BIOSCIENCE, published 2025)

The binders below were run against T1, human IgE (human, UniProt P01854 1-428) (assay: ELISA, clone lysate on IgE-coated plate).
T1 construct: written under the same molecule; also called IgE (Abcam ab65866); soluble IgE
Text: Each amino acid in CDR1 (SEQ ID NO:3), CDR2 (SEQ ID NO:68), and CDR3 (SEQ ID NO:74) was randomly replaced such that the 20 natural amino acids would likely all have been sampled at every position. The expression vector for the VHH containing the mutagenized CDRs was then transfected into E. coli, and at least 96 clones were randomly chosen for each position mutated in each CDR. This gives likely coverage of all potential mutations at each position since the probability to get any given amino acid at that position is 5%. […] The heat maps represent the relative binding for each clone determined by the range of OD values from the ELISA background to WT CDR binding (FIGS. 16A-16C). Site numbering for each residue tested is indicated by the inset tables in FIGS. 16A-16C.

T1 sequence (P01854 other isoform, or with tags, fused parts or gaps limits assumed, form in doubt): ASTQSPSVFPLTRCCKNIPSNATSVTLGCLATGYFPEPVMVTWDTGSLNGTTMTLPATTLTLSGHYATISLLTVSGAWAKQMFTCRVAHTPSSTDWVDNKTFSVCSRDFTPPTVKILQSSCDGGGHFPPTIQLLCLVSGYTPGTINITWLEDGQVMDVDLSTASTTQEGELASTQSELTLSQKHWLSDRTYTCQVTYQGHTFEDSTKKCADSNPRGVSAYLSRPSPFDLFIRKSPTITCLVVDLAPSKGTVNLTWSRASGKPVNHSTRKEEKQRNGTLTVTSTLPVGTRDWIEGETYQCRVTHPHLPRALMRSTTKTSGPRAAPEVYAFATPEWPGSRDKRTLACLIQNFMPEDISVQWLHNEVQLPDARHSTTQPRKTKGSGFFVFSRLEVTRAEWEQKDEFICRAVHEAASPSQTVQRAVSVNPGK

Confirm OD450 Duplicate1	Confirm OD450 Duplicate2	R1 Screening OD450	Binder
0.647	0.601	0.754	2-1F11 (VHH, also called hzB10v40 VHH, CDR1 site 2 L to I) VHH: EVQLLESGGGEVQPGGSLRLSCVASGITFSSYNMGWLRQAPGKEREFVGLSGSSSTSTYYAESVKGRFTISRDNAKNTVYLQMTSLRAEDTAVYYCAARRLLSTYWSDRSWDFWGQGTLVTVEP
0.452	0.454	0.879	9B1 (VHH, also called hzB10v40 VHH, CDR1 site 9 M to V) VHH: EVQLLESGGGEVQPGGSLRLSCVASGLTFSSYNVGWLRQAPGKEREFVGLSGSSSTSTYYAESVKGRFTISRDNAKNTVYLQMTSLRAEDTAVYYCAARRLLSTYWSDRSWDFWGQGTLVTVEP
0.585	0.634	0.945	3-1B9 (VHH, also called hzB10v40 VHH, CDR1 site 3 T to N) VHH: EVQLLESGGGEVQPGGSLRLSCVASGLNFSSYNMGWLRQAPGKEREFVGLSGSSSTSTYYAESVKGRFTISRDNAKNTVYLQMTSLRAEDTAVYYCAARRLLSTYWSDRSWDFWGQGTLVTVEP
0.545	0.55	0.893	5H11 (VHH, also called hzB10v40 VHH, CDR1 site 5 S to R) VHH: EVQLLESGGGEVQPGGSLRLSCVASGLTFRSYNMGWLRQAPGKEREFVGLSGSSSTSTYYAESVKGRFTISRDNAKNTVYLQMTSLRAEDTAVYYCAARRLLSTYWSDRSWDFWGQGTLVTVEP
0.546	0.556	0.897	5C3 (VHH, also called hzB10v40 VHH, CDR1 site 5 S to D) VHH: EVQLLESGGGEVQPGGSLRLSCVASGLTFDSYNMGWLRQAPGKEREFVGLSGSSSTSTYYAESVKGRFTISRDNAKNTVYLQMTSLRAEDTAVYYCAARRLLSTYWSDRSWDFWGQGTLVTVEP
0.579	0.586	1.05	4-2E2 (VHH, also called hzB10v40 VHH, CDR1 site 4 F to G) VHH: EVQLLESGGGEVQPGGSLRLSCVASGLTGSSYNMGWLRQAPGKEREFVGLSGSSSTSTYYAESVKGRFTISRDNAKNTVYLQMTSLRAEDTAVYYCAARRLLSTYWSDRSWDFWGQGTLVTVEP
0.607	0.572	0.896	3-1A1 (VHH, also called hzB10v40 VHH, CDR1 site 3 T to V) VHH: EVQLLESGGGEVQPGGSLRLSCVASGLVFSSYNMGWLRQAPGKEREFVGLSGSSSTSTYYAESVKGRFTISRDNAKNTVYLQMTSLRAEDTAVYYCAARRLLSTYWSDRSWDFWGQGTLVTVEP
0.57	0.594	0.904	3-1B10 (VHH, also called hzB10v40 VHH, CDR1 site 3 T to K) VHH: EVQLLESGGGEVQPGGSLRLSCVASGLKFSSYNMGWLRQAPGKEREFVGLSGSSSTSTYYAESVKGRFTISRDNAKNTVYLQMTSLRAEDTAVYYCAARRLLSTYWSDRSWDFWGQGTLVTVEP
0.417	0.402	0.885	6F11 (VHH, also called hzB10v40 VHH, CDR1 site 6 S to R) VHH: EVQLLESGGGEVQPGGSLRLSCVASGLTFSRYNMGWLRQAPGKEREFVGLSGSSSTSTYYAESVKGRFTISRDNAKNTVYLQMTSLRAEDTAVYYCAARRLLSTYWSDRSWDFWGQGTLVTVEP
0.534	0.526	0.826	6C2 (VHH, also called hzB10v40 VHH, CDR1 site 6 S to Q) VHH: EVQLLESGGGEVQPGGSLRLSCVASGLTFSQYNMGWLRQAPGKEREFVGLSGSSSTSTYYAESVKGRFTISRDNAKNTVYLQMTSLRAEDTAVYYCAARRLLSTYWSDRSWDFWGQGTLVTVEP
0.609	0.573	0.914	5A1 (VHH, also called hzB10v40 VHH, CDR1 site 5 S to K) VHH: EVQLLESGGGEVQPGGSLRLSCVASGLTFKSYNMGWLRQAPGKEREFVGLSGSSSTSTYYAESVKGRFTISRDNAKNTVYLQMTSLRAEDTAVYYCAARRLLSTYWSDRSWDFWGQGTLVTVEP
0.571	0.568	0.97	8H11 (VHH, also called hzB10v40 VHH, CDR1 site 8 N to R) VHH: EVQLLESGGGEVQPGGSLRLSCVASGLTFSSYRMGWLRQAPGKEREFVGLSGSSSTSTYYAESVKGRFTISRDNAKNTVYLQMTSLRAEDTAVYYCAARRLLSTYWSDRSWDFWGQGTLVTVEP
0.522	0.539	0.897	9E8 (VHH, also called hzB10v40 VHH, CDR1 site 9 M to L) VHH: EVQLLESGGGEVQPGGSLRLSCVASGLTFSSYNLGWLRQAPGKEREFVGLSGSSSTSTYYAESVKGRFTISRDNAKNTVYLQMTSLRAEDTAVYYCAARRLLSTYWSDRSWDFWGQGTLVTVEP
0.556	0.512	0.875	6G9 (VHH, also called hzB10v40 VHH, CDR1 site 6 S to A) VHH: EVQLLESGGGEVQPGGSLRLSCVASGLTFSAYNMGWLRQAPGKEREFVGLSGSSSTSTYYAESVKGRFTISRDNAKNTVYLQMTSLRAEDTAVYYCAARRLLSTYWSDRSWDFWGQGTLVTVEP
0.435	0.442	0.905	9D1 (VHH, also called hzB10v40 VHH, CDR1 site 9 M to I) VHH: EVQLLESGGGEVQPGGSLRLSCVASGLTFSSYNIGWLRQAPGKEREFVGLSGSSSTSTYYAESVKGRFTISRDNAKNTVYLQMTSLRAEDTAVYYCAARRLLSTYWSDRSWDFWGQGTLVTVEP
0.621	0.62	0.914	2-2C3 (VHH, also called hzB10v40 VHH, CDR1 site 2 L to V) VHH: EVQLLESGGGEVQPGGSLRLSCVASGVTFSSYNMGWLRQAPGKEREFVGLSGSSSTSTYYAESVKGRFTISRDNAKNTVYLQMTSLRAEDTAVYYCAARRLLSTYWSDRSWDFWGQGTLVTVEP
0.487	0.53	0.908	6H1 (VHH, also called hzB10v40 VHH, CDR1 site 6 S to P) VHH: EVQLLESGGGEVQPGGSLRLSCVASGLTFSPYNMGWLRQAPGKEREFVGLSGSSSTSTYYAESVKGRFTISRDNAKNTVYLQMTSLRAEDTAVYYCAARRLLSTYWSDRSWDFWGQGTLVTVEP
0.582	0.483	0.798	4-1F11 (VHH, also called hzB10v40 VHH, CDR1 site 4 F to P) VHH: EVQLLESGGGEVQPGGSLRLSCVASGLTPSSYNMGWLRQAPGKEREFVGLSGSSSTSTYYAESVKGRFTISRDNAKNTVYLQMTSLRAEDTAVYYCAARRLLSTYWSDRSWDFWGQGTLVTVEP
0.498	0.467	0.921	9F1 (VHH, also called hzB10v40 VHH, CDR1 site 9 M to S) VHH: EVQLLESGGGEVQPGGSLRLSCVASGLTFSSYNSGWLRQAPGKEREFVGLSGSSSTSTYYAESVKGRFTISRDNAKNTVYLQMTSLRAEDTAVYYCAARRLLSTYWSDRSWDFWGQGTLVTVEP
0.554	0.549	0.96	5A10 (VHH, also called hzB10v40 VHH, CDR1 site 5 S to A) VHH: EVQLLESGGGEVQPGGSLRLSCVASGLTFASYNMGWLRQAPGKEREFVGLSGSSSTSTYYAESVKGRFTISRDNAKNTVYLQMTSLRAEDTAVYYCAARRLLSTYWSDRSWDFWGQGTLVTVEP
0.534	0.552	0.917	8G10 (VHH, also called hzB10v40 VHH, CDR1 site 8 N to S) VHH: EVQLLESGGGEVQPGGSLRLSCVASGLTFSSYSMGWLRQAPGKEREFVGLSGSSSTSTYYAESVKGRFTISRDNAKNTVYLQMTSLRAEDTAVYYCAARRLLSTYWSDRSWDFWGQGTLVTVEP
0.567	0.559	0.857	3-1H1 (VHH, also called hzB10v40 VHH, CDR1 site 3 T to I) VHH: EVQLLESGGGEVQPGGSLRLSCVASGLIFSSYNMGWLRQAPGKEREFVGLSGSSSTSTYYAESVKGRFTISRDNAKNTVYLQMTSLRAEDTAVYYCAARRLLSTYWSDRSWDFWGQGTLVTVEP
0.697	0.545	0.709	4-1F10 (VHH, also called hzB10v40 VHH, CDR1 site 4 F to Y) VHH: EVQLLESGGGEVQPGGSLRLSCVASGLTYSSYNMGWLRQAPGKEREFVGLSGSSSTSTYYAESVKGRFTISRDNAKNTVYLQMTSLRAEDTAVYYCAARRLLSTYWSDRSWDFWGQGTLVTVEP
0.454	0.468	0.817	6E11 (VHH, also called hzB10v40 VHH, CDR1 site 6 S to T) VHH: EVQLLESGGGEVQPGGSLRLSCVASGLTFSTYNMGWLRQAPGKEREFVGLSGSSSTSTYYAESVKGRFTISRDNAKNTVYLQMTSLRAEDTAVYYCAARRLLSTYWSDRSWDFWGQGTLVTVEP
0.475	0.488	0.852	6A9 (VHH, also called hzB10v40 VHH, CDR1 site 6 S to E) VHH: EVQLLESGGGEVQPGGSLRLSCVASGLTFSEYNMGWLRQAPGKEREFVGLSGSSSTSTYYAESVKGRFTISRDNAKNTVYLQMTSLRAEDTAVYYCAARRLLSTYWSDRSWDFWGQGTLVTVEP
0.52	0.559	0.922	8F11 (VHH, also called hzB10v40 VHH, CDR1 site 8 N to T) VHH: EVQLLESGGGEVQPGGSLRLSCVASGLTFSSYTMGWLRQAPGKEREFVGLSGSSSTSTYYAESVKGRFTISRDNAKNTVYLQMTSLRAEDTAVYYCAARRLLSTYWSDRSWDFWGQGTLVTVEP
